Data published in patent publication US20090318342A1, “Compounds” (IMPERIAL INNOVATIONS LIMITED, priority 2005, published 2009).

Tests used:
[1] = target: soluble form of TACE in which the transmembrane and C-terminal cytoplasmic domains are deleted (TACE R651) (human) (UniProt P78536); assay: TACE inhibition kinetics at pH 7.5
[2] = target: T1, ADAMTS-4 (as used in Example 4; form not stated) (Homo sapiens (Human)) (UniProt O75173); assay: GST-IGD-FLAG substrate assay, Ki(app)
T1 sequence: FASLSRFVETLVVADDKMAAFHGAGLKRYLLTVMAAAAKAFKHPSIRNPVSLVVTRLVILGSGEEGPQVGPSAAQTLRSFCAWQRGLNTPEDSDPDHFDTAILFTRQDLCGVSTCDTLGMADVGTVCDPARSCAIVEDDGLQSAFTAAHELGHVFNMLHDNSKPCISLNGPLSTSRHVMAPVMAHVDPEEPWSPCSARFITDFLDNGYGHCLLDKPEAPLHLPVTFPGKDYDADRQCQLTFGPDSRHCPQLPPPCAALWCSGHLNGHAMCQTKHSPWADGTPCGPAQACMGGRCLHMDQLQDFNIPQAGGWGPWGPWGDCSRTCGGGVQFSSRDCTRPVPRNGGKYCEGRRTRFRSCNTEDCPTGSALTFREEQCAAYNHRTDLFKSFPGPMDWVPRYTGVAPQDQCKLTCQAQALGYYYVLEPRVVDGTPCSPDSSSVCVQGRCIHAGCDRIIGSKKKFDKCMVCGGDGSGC

[3] = target: ADAMTS-5 (Homo sapiens (Human)) (UniProt Q9UNA0); assay: GST-IGD-FLAG substrate assay, Ki(app)
[4] = target: gelatinase A (MMP-2) (Homo sapiens (Human)) (UniProt P08253); assay: enzyme inhibition kinetics, Ki(app), 1 nM MMP-2
[5] = target: full-length collagenase 1 (MMP-1) (Homo sapiens (Human)) (UniProt P03956); assay: enzyme inhibition kinetics, Ki(app), 5 nM MMP-1
[6] = target: catalytic domain of stromelysin 1 (MMP-3(ΔC)) (Homo sapiens (Human)) (UniProt P08254); assay: enzyme inhibition kinetics, Ki(app), 1 nM MMP-3(ΔC)
[7] = target: catalytic domain of membrane-type 1 MMP (MMP-14(CD)) (Homo sapiens (Human)) (UniProt P50281); assay: enzyme inhibition kinetics, Ki(app), 5 nM MMP-14(CD)
[8] = target: catalytic domain of stromelysin 1 (MMP-3(ΔC)) (Homo sapiens (Human)) (UniProt P08254); assay: enzyme inhibition kinetics, Ki(app), as in Example 1
[9] = target: full-length collagenase 1 (MMP-1) (Homo sapiens (Human)) (UniProt P03956); assay: as above
[10] = target: gelatinase A (MMP-2) (Homo sapiens (Human)) (UniProt P08253); assay: as above
[11] = target: soluble form of TACE in which the transmembrane and C-terminal cytoplasmic domains are deleted (TACE R651) (human) (UniProt P78536); assay: TACE inhibition kinetics, Ki(app), pH 9.0, fit with equation 3 (cooperative)
[12] = target: T2, recombinant human ADAMTS-4 lacking the C-terminal spacer domain (human) (UniProt O75173); assay: inhibition of aggrecan cleavage by 0.5 nM ADAMTS-4, anti-GELE Western blot, densitometry
T2 sequence: T1 sequence

[13] = target: full-length collagenase 1 (MMP-1) (Homo sapiens (Human)) (UniProt P03956); assay: MMP-1 inhibition under the conditions used for TACE activity measurements
Target sequence in this assay (P03956 100-469 limits assumed): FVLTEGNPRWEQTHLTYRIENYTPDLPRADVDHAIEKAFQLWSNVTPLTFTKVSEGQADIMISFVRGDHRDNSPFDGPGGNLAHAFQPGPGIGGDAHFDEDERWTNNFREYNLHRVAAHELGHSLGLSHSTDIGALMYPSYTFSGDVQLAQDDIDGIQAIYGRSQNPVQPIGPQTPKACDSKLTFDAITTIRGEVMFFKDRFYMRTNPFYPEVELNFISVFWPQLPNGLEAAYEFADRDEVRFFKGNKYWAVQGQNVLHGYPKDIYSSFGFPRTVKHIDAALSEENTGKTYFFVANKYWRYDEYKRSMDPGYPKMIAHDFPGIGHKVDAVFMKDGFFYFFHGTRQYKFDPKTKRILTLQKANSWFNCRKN

Chain of (-1A)N-TIMP-3 (chain): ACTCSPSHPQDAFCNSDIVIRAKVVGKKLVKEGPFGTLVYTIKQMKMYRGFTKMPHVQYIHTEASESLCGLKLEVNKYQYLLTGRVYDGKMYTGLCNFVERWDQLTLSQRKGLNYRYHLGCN

Substance	Ki [1]	Ki [2]	Ki [3]	Ki [4]	Ki [5]	Ki [6]	Ki [7]	Ki [8]	Ki [9]	Ki [10]	Ki [11]	Ki [12]	Ki [13]
N-TIMP-3(T2G)	46 nM	20 nM	1.5 nM	4200 nM	547 nM	> 10000 nM	2300 nM	> 1000 nM	> 500 nM	> 1000 nM	35.6 nM	15 nM	–
(-1A)N-TIMP-3	–	25 nM	1.9 nM	614 nM	1300 nM	3300 nM	941 nM	> 1000 nM	> 500 nM	> 1000 nM	33.9 nM	18 nM	412 nM
